The values below come from the Immune Epitope Database (IEDB).

Among the targets are HLA-A*02:02; HLA-A*02:03; HLA-A*02:06; HLA-A*03:01; HLA-A*11:01; HLA-A*31:01; HLA-A*33:01; HLA-A*68:01.
What all share (experiment): IEDB peptide-MHC binding, purified MHC/competitive/radioactivity; filed as Kd, often an IC50 or EC50 that approximates it; ≥ and ≤ were set here for values at or beyond the usual limits of such assays
Setting [1] is: source organism: Vaccinia virus WR.
Where [2] appears, read: source organism: Mammarenavirus guanaritoense.
Setting [3] is: source organism: SARS coronavirus Tor2.

Some results are limits rather than exact numbers.

For the sequence QIGGEAIFLI, the Kd was determined as 8.19 nM in the assay with HLA-A*02:02 (setting [1]), 0.201 nM in the assay with HLA-A*02:03 (setting [1]) and 14.8 nM with HLA-A*02:06 (setting [1]).

In the case of CNYTRFWYI, the Kd with HLA-A*02:02 (setting [2]) is 10100 nM; with HLA-A*02:03 (setting [2]) it was 5310 nM; in the assay with HLA-A*02:06 (setting [2]), 257 nM.

LIYRQLTSNV: the dissociation constant Kd in the assay with HLA-A*02:02 (setting [1]) came out at 78.7 nM; with HLA-A*02:03 (setting [1]), 7.49 nM; with HLA-A*02:06 (setting [1]) it was 169 nM.

In the case of PTDMLKLFT, the results for the Kd with HLA-A*02:02 (setting [1]), in the assay with HLA-A*02:03 (setting [1]) and in the assay with HLA-A*02:06 (setting [1]) were no less than 29100 nM, no less than 47000 nM and no less than 69200 nM, respectively.

Turning to EVRYIDITNI, the Kd worked out at 12900 nM with HLA-A*02:02 (setting [1]), 5810 nM with HLA-A*02:03 (setting [1]) and 4340 nM in the assay with HLA-A*02:06 (setting [1]).

On to YIPPCQCTV, for which the Kd with HLA-A*02:02 (setting [1]) was 196 nM; with HLA-A*02:03 (setting [1]), 445 nM; with HLA-A*02:06 (setting [1]), 92.5 nM.

For the sequence SAVFKDSFL, the Kd with HLA-A*02:02 (setting [1]) was 231 nM; with HLA-A*02:03 (setting [1]) it was 536 nM; in the assay with HLA-A*02:06 (setting [1]) it was 1140 nM.

Regarding STVDVRNIV, the Kd with HLA-A*02:02 (setting [1]) is 6330 nM; with HLA-A*02:03 (setting [1]), 3480 nM; with HLA-A*02:06 (setting [1]), 1630 nM.

Take LVFLILCFT: the Kd with HLA-A*02:02 (setting [3]) worked out at 2490 nM; in the assay with HLA-A*02:03 (setting [3]), 1850 nM; with HLA-A*02:06 (setting [3]) it was 1370 nM.

For the sequence FVKENERVNV, the results for the Kd with HLA-A*02:02 (setting [1]), with HLA-A*02:03 (setting [1]) and with HLA-A*02:06 (setting [1]) were 186 nM, 11.8 nM and 683 nM, respectively.

Consider DTLVKSGLT, for which the results for the Kd with HLA-A*02:02 (setting [1]), in the assay with HLA-A*02:03 (setting [1]) and in the assay with HLA-A*02:06 (setting [1]) were 1950 nM, 2880 nM and no less than 52700 nM, respectively.

In the case of FVMCLEAKT, the Kd in the assay with HLA-A*02:02 (setting [1]) stood at 609 nM; with HLA-A*02:03 (setting [1]) it was 1940 nM; with HLA-A*02:06 (setting [1]), 979 nM.

In the case of YTRPEIDVL, the Kd with HLA-A*02:02 (setting [1]) is 115 nM; with HLA-A*02:03 (setting [1]), 73.6 nM; with HLA-A*02:06 (setting [1]), 154 nM.

For the sequence FLPSDFFPSV, the Kd with HLA-A*02:02 (source organism: Hepatitis B virus) is 2 nM.

Regarding DIVSDSKKIM, the Kd was no less than 25100 nM with HLA-A*02:02 (setting [1]), no less than 57200 nM with HLA-A*02:03 (setting [1]) and no less than 69800 nM with HLA-A*02:06 (setting [1]).

Take TMKAIEKDRL: the Kd is 171 nM with HLA-A*02:02 (setting [1]), 1060 nM with HLA-A*02:03 (setting [1]) and no less than 69800 nM with HLA-A*02:06 (setting [1]).

On to TVPTNDHIPV, for which the results for the Kd with HLA-A*02:02 (setting [1]), with HLA-A*02:03 (setting [1]) and in the assay with HLA-A*02:06 (setting [1]) were 1680 nM, 1890 nM and 515 nM, respectively.

For the sequence IIPFIAYFVL, the Kd with HLA-A*02:02 (setting [1]) came out at 715 nM; in the assay with HLA-A*02:03 (setting [1]), 4730 nM; in the assay with HLA-A*02:06 (setting [1]) it was 852 nM.

NLCKYLRGHT: the Kd with HLA-A*02:02 (setting [1]) was no less than 39600 nM; with HLA-A*02:03 (setting [1]), 8040 nM; in the assay with HLA-A*02:06 (setting [1]) it was no less than 69800 nM.

In the case of ITETIPIGM, the Kd with HLA-A*02:02 (setting [1]) was 12400 nM; with HLA-A*02:03 (setting [1]), no less than 42800 nM; in the assay with HLA-A*02:06 (setting [1]), 7690 nM.

In the case of GLFTSLGKAV, in the assay with HLA-A*02:03 (source organism: Dengue virus 4 Dominica/814669/1981), the Kd stood at 18.7 nM.

With CVRNLEELTT, the results for the Kd with HLA-A*02:02 (setting [1]), in the assay with HLA-A*02:03 (setting [1]) and with HLA-A*02:06 (setting [1]) were 12600 nM, 15200 nM and no less than 42800 nM, respectively.

Take TIDKSSPLYI: the Kd was 387 nM with HLA-A*02:02 (setting [1]), 12.3 nM with HLA-A*02:03 (setting [1]) and 1820 nM with HLA-A*02:06 (setting [1]).

Turning to GVCYYLLMHL, the Kd was 95.8 nM with HLA-A*02:02 (setting [1]), 63.8 nM in the assay with HLA-A*02:03 (setting [1]) and 128 nM in the assay with HLA-A*02:06 (setting [1]).

Take EAFETQSGA: the Kd in the assay with HLA-A*02:02 (setting [1]) was no less than 77800 nM; with HLA-A*02:03 (setting [1]), no less than 78100 nM; with HLA-A*02:06 (setting [1]), no less than 49700 nM.

With GVLHTKFWI, the Kd is 16600 nM in the assay with HLA-A*02:02 (setting [1]), 12300 nM with HLA-A*02:03 (setting [1]) and 417 nM with HLA-A*02:06 (setting [1]).

For SIHLTKTDKK, the Kd in the assay with HLA-A*03:01 (setting [1]) is 185 nM; with HLA-A*11:01 (setting [1]), 278 nM; with HLA-A*31:01 (setting [1]) it was no less than 21800 nM; in the assay with HLA-A*33:01 (setting [1]) it was no less than 70000 nM; with HLA-A*68:01 (setting [1]), 1990 nM.

With ALLSTDGNK, the Kd with HLA-A*03:01 (setting [3]) was 52.5 nM; with HLA-A*11:01 (setting [3]), 494 nM; with HLA-A*31:01 (setting [3]), 10200 nM; with HLA-A*33:01 (setting [3]), no less than 77700 nM; in the assay with HLA-A*68:01 (setting [3]), no less than 23700 nM.

On to GLYIPGTSVI, for which the equilibrium dissociation constant (Kd) with HLA-A*02:02 (setting [1]) is 92.1 nM; with HLA-A*02:03 (setting [1]), 0.189 nM; with HLA-A*02:06 (setting [1]) it was 3620 nM.

For MQKFTILEYL, the Kd is 164 nM with HLA-A*02:02 (setting [1]), 279 nM in the assay with HLA-A*02:03 (setting [1]) and 909 nM in the assay with HLA-A*02:06 (setting [1]).

On to CIVAAVIIMA, for which the Kd with HLA-A*02:02 (setting [1]) is 1130 nM; with HLA-A*02:03 (setting [1]), 619 nM; with HLA-A*02:06 (setting [1]), 733 nM.

SQMLLIVLK: the Kd came out at 204 nM in the assay with HLA-A*03:01 (setting [3]); 0.503 nM with HLA-A*11:01 (setting [3]); 350 nM with HLA-A*31:01 (setting [3]); 4960 nM with HLA-A*33:01 (setting [3]); 310 nM in the assay with HLA-A*68:01 (setting [3]).

On to CVDIPGIPK, for which the Kd was 149 nM with HLA-A*03:01 (setting [3]); 19.9 nM with HLA-A*11:01 (setting [3]); no less than 10000 nM with HLA-A*31:01 (setting [3]); no less than 37900 nM with HLA-A*33:01 (setting [3]); 102 nM with HLA-A*68:01 (setting [3]).

VLTLATGPV: the Kd with HLA-A*02:03 (source organism: Dengue virus 4 Philippines/H241/1956) amounted to 24.9 nM.

For orientation: Kd means the concentration at which binding is half-saturated.
